# Measurements as given in PMC7076025, “A unique DNA-binding mode of African swine fever virus AP endonuclease”.
# T1: AsfvAP WT (African swine fever virus, UniProt P0C9C6 1-296)
# T1 sequence: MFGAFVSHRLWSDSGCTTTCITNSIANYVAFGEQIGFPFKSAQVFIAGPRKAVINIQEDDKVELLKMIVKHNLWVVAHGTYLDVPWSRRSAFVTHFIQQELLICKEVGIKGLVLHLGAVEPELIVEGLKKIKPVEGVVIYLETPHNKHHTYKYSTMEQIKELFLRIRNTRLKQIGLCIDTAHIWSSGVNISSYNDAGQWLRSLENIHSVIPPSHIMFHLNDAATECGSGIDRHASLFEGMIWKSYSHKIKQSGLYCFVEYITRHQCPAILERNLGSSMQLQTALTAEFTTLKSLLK
# Target: T1, AsfvAP WT
# Test: X-ray crystallography
# Conditions: protein: recombinant; tags: His-SUMO removed with Ulp1; GSGGG linker encoded before M1
binder,measurement,value
DNA-2 (dsDNA) DNA 1: GCAGCGTCACCGACGAAA DNA 2: CCTCGTCGGGGACGCTGC,binding result,binds
